In publication PMC2673096:

Target: FLAG-HA-HA (F2H)-tagged tbRAP1 at its endogenous locus (Trypanosoma brucei (endogenous locus in T. brucei cells))
Assay: co-IP

endogenous tbTRF (natural protein)
percent co-immunoprecipitated: 10%
